Assays:
[1] = target: 磷酸二(2-乙基己基)酯蛋白偶联物 (di(2-ethylhexyl) phosphate coupled to bovine serum albumin) (bovine (牛)) (UniProt P02769); assay: indirect ELISA, D-BSA coated on plate, antibody titrated, OD450
[2] = target: 磷酸二(2-乙基己基)酯蛋白偶联物 (di(2-ethylhexyl) phosphate coupled to bovine serum albumin) (bovine (牛)) (UniProt P02769); assay: indirect ELISA, D-BSA coated on plate, antibody titrated, OD450; unit from the x axis of Figure 1

UniProt P02769, sequence (P02769 25-607 limits assumed, form in doubt): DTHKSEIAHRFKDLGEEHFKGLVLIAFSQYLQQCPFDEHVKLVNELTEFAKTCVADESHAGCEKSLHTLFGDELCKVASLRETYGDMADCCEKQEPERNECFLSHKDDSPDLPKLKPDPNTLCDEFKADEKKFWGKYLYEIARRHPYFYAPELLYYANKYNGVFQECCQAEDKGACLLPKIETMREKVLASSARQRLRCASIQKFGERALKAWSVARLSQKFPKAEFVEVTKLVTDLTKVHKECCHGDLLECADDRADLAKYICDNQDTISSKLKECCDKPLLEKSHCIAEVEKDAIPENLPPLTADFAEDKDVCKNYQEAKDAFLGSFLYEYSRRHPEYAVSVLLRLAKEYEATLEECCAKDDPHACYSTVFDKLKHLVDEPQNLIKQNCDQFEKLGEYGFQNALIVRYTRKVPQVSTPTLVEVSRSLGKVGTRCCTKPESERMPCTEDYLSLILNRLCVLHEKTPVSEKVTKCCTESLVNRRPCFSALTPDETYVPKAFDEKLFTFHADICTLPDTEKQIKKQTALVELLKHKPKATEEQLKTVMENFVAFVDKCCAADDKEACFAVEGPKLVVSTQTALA

B1: 磷酸二(2-乙基己基)酯单克隆抗体 (monoclonal antibody against di(2-ethylhexyl) phosphate, secreted by hybridoma cell line 2D5, CCTCC NO: C2021136) (antibody, V domains shown)
VH: QVQLQQSGAELVRPGSSVKISCKASGYAFSSYWMNWVKQRPGQGLEWIGQIYPGDGDTNYNGKFKGKATLTADKSSSTAYMQLSSLTSEDSAVYFCARSDYPWFVYWGQGTLVTVSA
VL: QIVLTQSPAIMSASPGEKVTISCSASSSVSYMYWYQQKPGSSPKPWIYRTSNLASGVPARFSGSGSGTSYSLTISSMEAEDAATYYCQQYHSYPWTFGGGTKLEIK
A of the ELISA titer curve (lower asymptote, OD450) [1]: 0.203 OD450
D of the ELISA titer curve (upper asymptote, OD450) [1]: 2.19 OD450
C of the ELISA titer curve y=(A-D)/(1+(x/C)^B)+D (midpoint antibody concentration) [2]: 62.4 ng/mL
